# Measured values published in publication PMC5916898, “Global profiling of protein–DNA and protein–nucleosome binding affinities using quantitative mass spectrometry”.
# T1: VEZF1 (Homo sapiens, UniProt Q14119)
# T1 sequence: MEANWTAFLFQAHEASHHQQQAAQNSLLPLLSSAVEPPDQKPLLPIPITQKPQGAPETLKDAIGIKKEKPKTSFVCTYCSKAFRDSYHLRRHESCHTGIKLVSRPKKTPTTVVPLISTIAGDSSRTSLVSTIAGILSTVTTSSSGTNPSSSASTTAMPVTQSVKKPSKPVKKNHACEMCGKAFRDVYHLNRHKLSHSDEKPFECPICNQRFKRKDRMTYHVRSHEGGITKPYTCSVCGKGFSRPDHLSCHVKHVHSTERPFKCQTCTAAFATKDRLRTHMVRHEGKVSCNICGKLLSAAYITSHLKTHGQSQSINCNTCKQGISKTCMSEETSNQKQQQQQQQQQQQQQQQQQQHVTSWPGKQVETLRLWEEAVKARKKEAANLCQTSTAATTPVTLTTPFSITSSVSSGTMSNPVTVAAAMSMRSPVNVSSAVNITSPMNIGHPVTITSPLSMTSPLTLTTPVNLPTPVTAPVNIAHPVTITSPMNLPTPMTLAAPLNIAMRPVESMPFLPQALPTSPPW
# T2: ZNF148 (Homo sapiens, UniProt Q9UQR1)
# T2 sequence: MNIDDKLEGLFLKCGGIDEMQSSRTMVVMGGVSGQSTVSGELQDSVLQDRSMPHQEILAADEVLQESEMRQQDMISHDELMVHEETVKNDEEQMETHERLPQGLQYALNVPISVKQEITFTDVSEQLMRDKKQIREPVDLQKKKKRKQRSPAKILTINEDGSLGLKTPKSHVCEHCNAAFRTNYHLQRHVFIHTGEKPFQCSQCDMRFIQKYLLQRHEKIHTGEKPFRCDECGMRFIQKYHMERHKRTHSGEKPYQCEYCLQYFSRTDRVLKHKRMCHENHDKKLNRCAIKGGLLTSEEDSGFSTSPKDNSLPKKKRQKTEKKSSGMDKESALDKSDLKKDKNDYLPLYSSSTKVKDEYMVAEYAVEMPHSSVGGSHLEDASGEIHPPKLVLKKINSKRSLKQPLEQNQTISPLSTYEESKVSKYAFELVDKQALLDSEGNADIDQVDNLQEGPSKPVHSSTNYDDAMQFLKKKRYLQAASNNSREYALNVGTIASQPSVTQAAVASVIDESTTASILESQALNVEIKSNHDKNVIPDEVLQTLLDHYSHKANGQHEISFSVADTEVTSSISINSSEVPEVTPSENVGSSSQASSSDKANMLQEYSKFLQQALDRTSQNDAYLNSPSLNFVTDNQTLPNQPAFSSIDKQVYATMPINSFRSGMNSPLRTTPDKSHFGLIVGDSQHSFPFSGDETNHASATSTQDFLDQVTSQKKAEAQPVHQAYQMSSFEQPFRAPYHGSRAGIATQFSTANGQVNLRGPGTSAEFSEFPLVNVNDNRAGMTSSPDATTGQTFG
# B1: SP/KLF wild-type (dsDNA)
# DNA 1: GAGAGCCCCGCCCCCTGGCT
# DNA 2: AGCCAGGGGGCGGGGCTCTC
# What was measured:
# Test in all cases: competition; 150 mM NaCl, 50 mM Tris pH 8, 0.25% NP-40, 1 mM TCEP; 4 C, 2 h; 100 ug HeLa nuclear lysate; free competitor against 200 nM immobilised SP/KLF wild-type
# Details in all cases: protein: extract
# VEZF1 = target: T1, VEZF1
# TFAP2A = TFAP2A (Homo sapiens, UniProt P05549)
# Chain of TFAP2A (P05549 whole entry): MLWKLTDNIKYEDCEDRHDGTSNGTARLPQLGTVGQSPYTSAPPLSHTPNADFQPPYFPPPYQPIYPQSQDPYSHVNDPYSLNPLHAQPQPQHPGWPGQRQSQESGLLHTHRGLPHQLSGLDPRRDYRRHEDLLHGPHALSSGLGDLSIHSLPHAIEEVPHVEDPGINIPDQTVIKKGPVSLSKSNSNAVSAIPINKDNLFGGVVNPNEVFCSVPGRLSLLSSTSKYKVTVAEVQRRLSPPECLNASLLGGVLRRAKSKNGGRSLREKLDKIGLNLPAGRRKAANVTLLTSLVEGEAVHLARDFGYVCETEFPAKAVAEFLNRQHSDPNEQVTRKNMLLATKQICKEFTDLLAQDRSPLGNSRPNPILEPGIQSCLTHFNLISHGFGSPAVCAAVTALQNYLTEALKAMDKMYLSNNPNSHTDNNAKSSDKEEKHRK
# KLF10 = KLF10 (Homo sapiens, UniProt Q13118)
# Chain of KLF10 (Q13118 whole entry): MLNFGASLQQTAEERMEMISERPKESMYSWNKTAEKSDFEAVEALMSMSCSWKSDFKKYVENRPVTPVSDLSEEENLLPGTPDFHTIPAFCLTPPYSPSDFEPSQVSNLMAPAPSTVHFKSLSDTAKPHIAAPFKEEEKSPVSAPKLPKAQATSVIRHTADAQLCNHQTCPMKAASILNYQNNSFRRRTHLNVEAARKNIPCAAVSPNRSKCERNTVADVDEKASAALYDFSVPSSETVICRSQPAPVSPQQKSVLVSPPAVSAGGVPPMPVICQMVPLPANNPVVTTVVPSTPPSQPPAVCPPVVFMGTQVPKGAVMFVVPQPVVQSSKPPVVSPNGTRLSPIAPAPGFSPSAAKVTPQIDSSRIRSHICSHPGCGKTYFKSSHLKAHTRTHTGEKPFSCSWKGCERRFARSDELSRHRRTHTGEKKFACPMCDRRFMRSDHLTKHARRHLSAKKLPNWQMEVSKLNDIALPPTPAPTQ
# KLF13 = KLF13 (Homo sapiens, UniProt Q9Y2Y9)
# Chain of KLF13 (Q9Y2Y9 whole entry): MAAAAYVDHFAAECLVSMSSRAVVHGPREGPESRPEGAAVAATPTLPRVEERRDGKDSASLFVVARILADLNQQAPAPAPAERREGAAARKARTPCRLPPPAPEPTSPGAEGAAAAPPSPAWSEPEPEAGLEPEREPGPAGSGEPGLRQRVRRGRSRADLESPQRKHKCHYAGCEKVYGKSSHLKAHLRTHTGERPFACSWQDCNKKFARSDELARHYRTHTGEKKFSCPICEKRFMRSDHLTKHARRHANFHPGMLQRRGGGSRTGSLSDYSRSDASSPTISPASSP
# SP1 = SP1 (Homo sapiens, UniProt P08047)
# Chain of SP1 (P08047 whole entry): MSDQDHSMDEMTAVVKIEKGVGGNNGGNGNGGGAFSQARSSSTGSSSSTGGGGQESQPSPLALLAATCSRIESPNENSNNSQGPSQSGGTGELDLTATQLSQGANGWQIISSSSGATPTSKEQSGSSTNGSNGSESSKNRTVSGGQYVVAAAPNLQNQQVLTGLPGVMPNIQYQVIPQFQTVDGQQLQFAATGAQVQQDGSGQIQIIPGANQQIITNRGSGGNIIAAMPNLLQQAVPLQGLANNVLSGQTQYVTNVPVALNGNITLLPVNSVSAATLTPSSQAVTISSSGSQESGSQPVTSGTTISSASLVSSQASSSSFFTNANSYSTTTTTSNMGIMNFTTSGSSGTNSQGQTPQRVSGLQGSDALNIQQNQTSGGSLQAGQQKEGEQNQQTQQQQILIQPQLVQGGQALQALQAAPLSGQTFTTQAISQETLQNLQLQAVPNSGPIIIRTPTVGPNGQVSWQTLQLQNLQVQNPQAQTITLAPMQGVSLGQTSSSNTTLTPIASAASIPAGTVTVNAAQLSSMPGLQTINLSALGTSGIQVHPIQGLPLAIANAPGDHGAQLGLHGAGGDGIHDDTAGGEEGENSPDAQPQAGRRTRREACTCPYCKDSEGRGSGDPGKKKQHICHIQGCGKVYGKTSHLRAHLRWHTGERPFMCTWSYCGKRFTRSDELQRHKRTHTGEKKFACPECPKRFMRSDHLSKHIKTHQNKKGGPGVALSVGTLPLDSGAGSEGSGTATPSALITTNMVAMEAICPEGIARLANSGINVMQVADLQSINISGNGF
# ZNF148 = target: T2, ZNF148
# KLF3 = KLF3 (Homo sapiens, UniProt P57682)
# Chain of KLF3 (P57682 whole entry): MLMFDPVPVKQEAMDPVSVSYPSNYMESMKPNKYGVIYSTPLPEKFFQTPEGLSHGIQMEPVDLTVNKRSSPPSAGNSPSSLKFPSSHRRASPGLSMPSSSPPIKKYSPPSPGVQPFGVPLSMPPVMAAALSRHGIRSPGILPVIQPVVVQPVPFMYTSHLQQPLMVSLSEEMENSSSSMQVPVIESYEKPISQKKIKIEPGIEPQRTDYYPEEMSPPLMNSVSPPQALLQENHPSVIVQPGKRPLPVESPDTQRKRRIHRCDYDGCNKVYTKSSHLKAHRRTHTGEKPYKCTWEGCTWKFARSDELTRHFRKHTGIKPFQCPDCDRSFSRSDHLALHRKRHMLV
binder,measurement,setting,value
B1,IC50,VEZF1,270 nM
same,IC50,TFAP2A,215 nM
same,IC50,KLF10,111 nM
same,IC50,KLF13,86.2 nM
same,IC50,SP1,192 nM
same,IC50,ZNF148,164 nM
same,IC50,KLF3,112 nM
